Reference: US20240277845A1 (XYPHOS BIOSCIENCES, published 2024)
Positions count from the first letter of the chain named. Numbers in names are those of the source.

T1: mouse NKG2D (mouse, UniProt O54709 94-232, limits assumed)
T1 construct: also called mouse wild-type NKG2D
T1 sequence (looked up): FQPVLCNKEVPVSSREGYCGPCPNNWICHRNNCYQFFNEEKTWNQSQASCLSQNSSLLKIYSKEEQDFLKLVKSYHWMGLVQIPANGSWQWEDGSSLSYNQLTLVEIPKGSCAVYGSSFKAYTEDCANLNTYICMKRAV

T2: Fc-wtNKG2D (human, UniProt P26718 78-216)
T2 construct: range 78-216; NKG2D ectodomain fused to the C-terminus of human IgG1 Fc; dimeric secreted protein; biotinylated in some ELISAs; also called wild-type NKG2D; Fc-NKG2D
T2 sequence: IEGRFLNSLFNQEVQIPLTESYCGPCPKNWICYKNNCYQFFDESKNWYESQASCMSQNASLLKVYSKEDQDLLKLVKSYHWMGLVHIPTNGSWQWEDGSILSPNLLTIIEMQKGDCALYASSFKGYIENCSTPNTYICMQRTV

T3: ULBP1-Fc (UniProt Q9BZM6 26-216)
T3 construct: Bought reagent; also called Ligand-Fc fusion (R&D Systems); not shown: Fc of the bought fusion, not described
T3 sequence (looked up): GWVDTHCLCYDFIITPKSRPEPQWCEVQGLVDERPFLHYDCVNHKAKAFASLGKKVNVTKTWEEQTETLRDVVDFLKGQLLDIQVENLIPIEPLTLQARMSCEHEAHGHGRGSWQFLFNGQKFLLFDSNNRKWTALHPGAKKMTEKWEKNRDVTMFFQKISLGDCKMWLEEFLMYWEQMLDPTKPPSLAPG

T4: ULBP3-Fc (UniProt Q9BZM4 30-217)
T4 construct: Bought reagent; also called Ligand-Fc fusion (R&D Systems); not shown: Fc of the bought fusion, not described
T4 sequence (looked up): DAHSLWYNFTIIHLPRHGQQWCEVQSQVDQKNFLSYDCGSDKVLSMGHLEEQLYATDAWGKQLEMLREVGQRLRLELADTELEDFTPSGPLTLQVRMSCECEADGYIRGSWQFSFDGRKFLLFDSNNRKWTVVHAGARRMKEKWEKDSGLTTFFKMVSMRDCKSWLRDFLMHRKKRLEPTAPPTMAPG

T5: ULBP2-Fc (UniProt Q9BZM5 26-217)
T5 construct: Bought reagent; also called Ligand-Fc fusion (R&D Systems); not shown: Fc of the bought fusion, not described
T5 sequence (looked up): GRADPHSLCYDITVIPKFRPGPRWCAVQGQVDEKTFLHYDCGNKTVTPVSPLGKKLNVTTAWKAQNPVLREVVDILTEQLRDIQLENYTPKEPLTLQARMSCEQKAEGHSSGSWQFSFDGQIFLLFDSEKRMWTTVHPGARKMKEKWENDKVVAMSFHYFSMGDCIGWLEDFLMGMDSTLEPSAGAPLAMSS

T6: ULBP4-Fc (UniProt Q8TD07 31-225, limits assumed)
T6 construct: Bought reagent; also called Ligand-Fc fusion (R&D Systems); not shown: Fc of the bought fusion, not described
T6 sequence (looked up): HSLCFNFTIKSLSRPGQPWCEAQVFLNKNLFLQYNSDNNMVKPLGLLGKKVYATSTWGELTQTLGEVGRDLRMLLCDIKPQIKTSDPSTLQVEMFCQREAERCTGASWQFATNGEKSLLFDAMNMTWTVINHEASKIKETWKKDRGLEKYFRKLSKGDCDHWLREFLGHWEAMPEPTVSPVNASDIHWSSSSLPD

T7: MICB-Fc (UniProt Q29980 23-298, limits assumed)
T7 construct: Bought reagent; also called Ligand-Fc fusion (R&D Systems); not shown: Fc of the bought fusion, not described
T7 sequence (looked up): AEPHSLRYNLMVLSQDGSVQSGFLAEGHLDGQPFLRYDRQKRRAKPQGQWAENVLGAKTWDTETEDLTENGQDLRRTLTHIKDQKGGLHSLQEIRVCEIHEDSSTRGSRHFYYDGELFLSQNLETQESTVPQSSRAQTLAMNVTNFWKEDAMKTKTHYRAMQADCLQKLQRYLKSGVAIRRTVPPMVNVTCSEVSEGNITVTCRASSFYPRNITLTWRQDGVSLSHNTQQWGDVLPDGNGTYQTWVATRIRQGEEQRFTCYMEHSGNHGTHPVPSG

B1: Rituximab.LC-U2S3 MicAbody (bispecific antibody, human IgG1, kappa, N297A)
heavy: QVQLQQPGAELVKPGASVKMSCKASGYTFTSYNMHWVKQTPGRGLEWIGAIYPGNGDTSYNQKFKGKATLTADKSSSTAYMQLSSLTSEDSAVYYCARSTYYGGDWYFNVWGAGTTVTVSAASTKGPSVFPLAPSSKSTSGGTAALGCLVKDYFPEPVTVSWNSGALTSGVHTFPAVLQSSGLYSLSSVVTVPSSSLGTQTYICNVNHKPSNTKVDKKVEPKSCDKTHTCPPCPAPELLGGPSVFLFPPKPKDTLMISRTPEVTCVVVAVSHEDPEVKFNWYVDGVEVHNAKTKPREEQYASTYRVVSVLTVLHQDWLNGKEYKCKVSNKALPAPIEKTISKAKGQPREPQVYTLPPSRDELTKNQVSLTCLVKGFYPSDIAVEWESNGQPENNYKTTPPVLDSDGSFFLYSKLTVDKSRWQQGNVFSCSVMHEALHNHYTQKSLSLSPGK
light: QIVLSQSPAILSASPGEKVTMTCRASSSVSYIHWFQQKPGSSPKPWIYATSNLASGVPVRFSGSGSGTSYSLTISRVEAEDAATYYCQQWTSNPPTFGGGTKLEIKRTVAAPSVFIFPPSDEQLKSGTASVVCLLNNFYPREAKVQWKVDNALQSGNSQESVTEQDSKDSTYSLSSTLTLSKADYEKHKVYACEVTHQGLSSPVTKSFNRGECAPTSSSGGGGSEPHSLSYDITVIPKFRPGPRWCAVQGQVDEKTFLHYDCGNKTVTPVSPLGKKLNVTTAWKAQNPVLREVVDILTEQLWDIQLENYTPKEPLTLQARMSCEQKAEGHSSGSWQFSFDGQIFLLFDSEKRMWTTVHPGARKMKEKWENDKVVATKLYLWSMGDCIGWLEDFLMGMDSTLEPS
notes: also called Rit-S3; Rit.S3
B2: Rituximab light-chain fusion of U2S3 (NQ) (bispecific antibody)
heavy: QVQLQQPGAELVKPGASVKMSCKASGYTFTSYNMHWVKQTPGRGLEWIGAIYPGNGDTSYNQKFKGKATLTADKSSSTAYMQLSSLTSEDSAVYYCARSTYYGGDWYFNVWGAGTTVTVSAA
light: B1 light with N264Q, N278Q
notes: also called Rit.NQ; Rit.S3.NQ; not shown: human IgG1 heavy-chain constant region, ADCC-deficient
B3: Fc-iNKG2D.YA (Fc fusion, human, not shown: a dimerising Fc or GST)
chain: T2 sequence with Y79A
notes: range 78-216; also called Y152A mutant
B4: Rituximab antibody (ADCC-deficient) (antibody, V domains shown)
VH: QVQLQQPGAELVKPGASVKMSCKASGYTFTSYNMHWVKQTPGRGLEWIGAIYPGNGDTSYNQKFKGKATLTADKSSSTAYMQLSSLTSEDSAVYYCARSTYYGGDWYFNVWGAGTTVTVSA
VL: QIVLSQSPAILSASPGEKVTMTCRASSSVSYIHWFQQKPGSSPKPWIYATSNLASGVPVRFSGSGSGTSYSLTISRVEAEDAATYYCQQWTSNPPTFGGGTKLEIK
notes: also called parent rituximab antibody; Rit.P; not shown: human IgG1 heavy-chain constant region, ADCC-deficient
B5: His-tagged monomeric U2S3 (ligand)
chain: EPHSLSYDITVIPKFRPGPRWCAVQGQVDEKTFLHYDCGNKTVTPVSPLGKKLNVTTAWKAQNPVLREVVDILTEQLWDIQLENYTPKEPLTLQARMSCEQKAEGHSSGSWQFSFDGQIFLLFDSEKRMWTTVHPGARKMKEKWENDKVVATKLYLWSMGDCIGWLEDFLMGMDSTLEPHHHHHH
notes: also called orthogonal U2S3 ligand

Assays:
Fc-iNKG2D.YA [1] = biological target: B3; assay: ELISA; wells coated with Fc-iNKG2D.YA, Rituximab.LC-U2S3 titrated
Fc-iNKG2D.YA [2] = biological target: B3; assay: Octet BLI; Fc-iNKG2D.YA captured on AHC tips, two-fold dilution series of MicAbody from 50 nM
Experimental: (§1) YA were captured with anti-human IgG Fc capture (AHC) biosensor tips then associated with a two-fold dilution series of MicAbody starting at 50 nM. The y-axes corresponding to binding responses were set to the same scale for all sensograms.

Fc-iNKG2D.YA [3] = biological target: B3; assay: ELISA; 'iNKG2D.YA capture; CD20(Rit)-MicAb titration; anti-kappa-HRP detection'
mouse NKG2D = biological target: T1, mouse NKG2D; assay: ELISA on mouse NKG2D, MicAbody titrated; y axis 'Mouse NKG2D binding' (absorbance)
Fc-wtNKG2D [4] = biological target: T2, Fc-wtNKG2D; assay: ELISA on wild-type NKG2D (FIG. 19); ELISA on wild-type NKG2D (FIG. 19), Rituximab light-chain fusion
ULBP1-Fc = biological target: T3, ULBP1-Fc; assay: ELISA; ligand-Fc coated, biotinylated Fc-iNKG2D.YA titrated, streptavidin-HRP; x axis printed as 'nM ligand-Fc'
ULBP3-Fc = biological target: T4, ULBP3-Fc; assay: as above
ULBP2-Fc = biological target: T5, ULBP2-Fc; assay: as above
ULBP4-Fc = biological target: T6, ULBP4-Fc; assay: as above
MICB-Fc = biological target: T7, MICB-Fc; assay: as above
MICA-Fc = biological target: T8, MICA-Fc (UniProt Q29983 24-308); assay: as above
T8 construct: Bought reagent; also called Ligand-Fc fusion (R&D Systems); not shown: Fc of the bought fusion, not described

Fc-wtNKG2D [5] = biological target: T2, Fc-wtNKG2D; assay: Octet BLI; Fc-wtNKG2D captured on AHC tips, two-fold dilution series from 50 nM
Experimental: as §1

Fc-iNKG2D.YA [6] = biological target: B3; assay: Octet BLI; Fc-iNKG2D.YA captured on AHC tips, two-fold dilution series from 50 nM
Experimental: as §1

Fc-iNKG2D.YA [7] = biological target: B3; assay: Octet BLI, Fc-iNKG2D.YA on AHC tips, His-tagged monomer (FIG. 4C)
Fc-iNKG2D.YA [8] = biological target: B3; assay: Octet BLI; Fc-iNKG2D.YA captured on AHC tips, dilution series of His-tagged monomeric ligand
Fc-wtNKG2D [9] = biological target: T2, Fc-wtNKG2D; assay: Octet BLI; Fc-wtNKG2D captured on AHC tips, dilution series of His-tagged monomeric ligand

T8 sequence (Q29983 24-308 limits assumed): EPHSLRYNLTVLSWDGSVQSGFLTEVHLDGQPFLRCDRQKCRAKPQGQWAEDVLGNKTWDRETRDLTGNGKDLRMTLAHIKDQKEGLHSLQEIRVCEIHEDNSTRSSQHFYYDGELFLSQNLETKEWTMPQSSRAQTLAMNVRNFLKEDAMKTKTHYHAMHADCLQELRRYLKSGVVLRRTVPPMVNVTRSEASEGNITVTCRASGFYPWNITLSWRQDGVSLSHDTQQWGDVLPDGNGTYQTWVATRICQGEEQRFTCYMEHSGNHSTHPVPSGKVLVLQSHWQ

Q: How did the “EC50 (read off the curve)” value (Fc-iNKG2D.YA [1]) turn out when B1 was run?
A: ~0.03 nM

Q: And the Kd (Fc-iNKG2D.YA [2])?
A: 0.01 nM

Q: What about the “EC50 (read off the curve)” value (Fc-iNKG2D.YA [3]) of the same binder?
A: ~0.06 nM

Q: What about the “EC50 (read off the curve)” value (mouse NKG2D) of the same binder?
A: ~40 nM

Q: For B2, which “EC50 (read off the curve)” value (Fc-iNKG2D.YA [3]) is on record?
A: ~0.04 nM

Q: Does B2 bind (Fc-wtNKG2D [4])?
A: no binding

Q: What does the source list for B3?
A: binding result (ULBP1-Fc): no binding (tested: about 2000 nM); binding result (ULBP3-Fc): no binding (tested: about 2000 nM); binding result (ULBP2-Fc): no binding (tested: about 2000 nM); binding result (ULBP4-Fc): no binding (tested: about 2000 nM); binding result (MICB-Fc): no binding (tested: about 2000 nM); binding result (MICA-Fc): no binding (tested: about 2000 nM)

Q: Does B4 bind (Fc-wtNKG2D [5])?
A: no binding (tested: 50 nM)

Q: Does B4 bind (Fc-iNKG2D.YA [6])?
A: no binding (tested: 50 nM)

Q: With B5 as the binder, how does the “fold higher affinity than wild-type ULBP2 to wtNKG2D” value (Fc-iNKG2D.YA [7]) read?
A: 10 fold

Q: And the Kd (Fc-iNKG2D.YA [8])?
A: 28 nM

Q: Does B5 bind (Fc-wtNKG2D [9])?
A: no binding (tested: not printed on the sheet)
